Assay [1] addresses KpBest, bacterial homolog of human bestrophin 1 (not stated (bacterial)).
Assay [2] addresses voltage-gated Ca^2+ channel complex. Description: FRET or BRET. On the technique in general: In BRET a luciferase serves as donor, and the signal depends on an acceptor being close.

The stoichiometry N is a count of units in the complex or per binding partner. The substance “KpBest, bacterial homolog of human bestrophin 1 (natural protein)” came in with a stoichiometry N in assay [1] of 5.
Substance “calmodulin (from UniProt P0DP23 1-149) (natural protein)” displayed a stoichiometry N in assay [2] of 1.

The values above are taken from paper PMC4555475.
